The source of these data is PMC10085699.

Read-outs that look alike come from different tables or passages of the source.

Series [1] deals with T1, SETX-HD-WT (Homo sapiens, UniProt Q7Z333 1674-2677).
T1 sequence: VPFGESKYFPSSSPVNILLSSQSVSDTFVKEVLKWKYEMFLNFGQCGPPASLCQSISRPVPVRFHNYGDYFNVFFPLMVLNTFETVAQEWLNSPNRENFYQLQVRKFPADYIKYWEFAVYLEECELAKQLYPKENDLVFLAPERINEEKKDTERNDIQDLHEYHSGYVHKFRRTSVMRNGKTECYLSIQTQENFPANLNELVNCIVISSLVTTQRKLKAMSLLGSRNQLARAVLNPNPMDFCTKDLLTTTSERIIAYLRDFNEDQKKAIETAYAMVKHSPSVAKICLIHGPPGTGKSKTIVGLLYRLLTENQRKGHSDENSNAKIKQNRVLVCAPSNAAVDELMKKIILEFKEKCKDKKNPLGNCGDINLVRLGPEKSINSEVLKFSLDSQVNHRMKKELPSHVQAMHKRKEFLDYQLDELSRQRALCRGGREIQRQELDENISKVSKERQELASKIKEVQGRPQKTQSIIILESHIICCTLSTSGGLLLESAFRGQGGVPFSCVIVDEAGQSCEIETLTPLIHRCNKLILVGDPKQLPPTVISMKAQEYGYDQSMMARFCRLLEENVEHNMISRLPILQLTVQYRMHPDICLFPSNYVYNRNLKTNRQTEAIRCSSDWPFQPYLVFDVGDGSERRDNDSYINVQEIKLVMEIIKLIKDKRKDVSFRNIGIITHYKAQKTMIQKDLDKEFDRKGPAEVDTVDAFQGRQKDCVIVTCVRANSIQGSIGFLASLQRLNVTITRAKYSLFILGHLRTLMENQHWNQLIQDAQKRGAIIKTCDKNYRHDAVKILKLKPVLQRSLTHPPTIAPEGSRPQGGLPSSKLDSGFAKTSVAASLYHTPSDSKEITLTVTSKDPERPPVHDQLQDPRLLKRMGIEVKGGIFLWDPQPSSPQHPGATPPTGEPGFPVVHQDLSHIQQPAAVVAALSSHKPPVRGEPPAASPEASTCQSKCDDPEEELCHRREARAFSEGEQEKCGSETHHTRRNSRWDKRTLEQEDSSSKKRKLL
The series is described as follows: BLI.

Series [2] concerns the target T2, Sen1-HD (UniProt Q00416 1095-1904).
T2 sequence: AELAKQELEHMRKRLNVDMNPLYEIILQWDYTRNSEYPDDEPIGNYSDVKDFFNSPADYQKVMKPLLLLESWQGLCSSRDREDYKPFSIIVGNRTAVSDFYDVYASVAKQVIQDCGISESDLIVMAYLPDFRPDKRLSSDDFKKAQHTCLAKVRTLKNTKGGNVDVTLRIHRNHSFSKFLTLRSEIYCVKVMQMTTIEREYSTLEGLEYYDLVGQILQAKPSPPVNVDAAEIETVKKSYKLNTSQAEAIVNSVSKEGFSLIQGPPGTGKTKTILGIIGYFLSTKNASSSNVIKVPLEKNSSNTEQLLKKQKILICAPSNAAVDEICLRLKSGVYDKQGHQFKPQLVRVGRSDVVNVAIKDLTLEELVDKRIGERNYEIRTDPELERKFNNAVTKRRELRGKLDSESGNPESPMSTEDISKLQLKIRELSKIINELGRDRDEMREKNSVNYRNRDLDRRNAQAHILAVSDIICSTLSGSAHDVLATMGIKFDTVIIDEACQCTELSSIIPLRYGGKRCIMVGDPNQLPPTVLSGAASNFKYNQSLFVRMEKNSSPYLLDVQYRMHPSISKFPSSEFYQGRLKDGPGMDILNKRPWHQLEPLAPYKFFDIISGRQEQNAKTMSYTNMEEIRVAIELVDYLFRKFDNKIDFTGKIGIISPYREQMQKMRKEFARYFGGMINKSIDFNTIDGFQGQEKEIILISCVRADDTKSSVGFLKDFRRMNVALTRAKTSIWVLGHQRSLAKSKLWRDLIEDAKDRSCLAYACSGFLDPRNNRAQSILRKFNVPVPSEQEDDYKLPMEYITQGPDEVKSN
Nature of the series: BLI.

Series [3] concerns the target T3, SETX-HD-V1884T (Homo sapiens, UniProt Q7Z333 1674-2677, V1884T).
T3 sequence: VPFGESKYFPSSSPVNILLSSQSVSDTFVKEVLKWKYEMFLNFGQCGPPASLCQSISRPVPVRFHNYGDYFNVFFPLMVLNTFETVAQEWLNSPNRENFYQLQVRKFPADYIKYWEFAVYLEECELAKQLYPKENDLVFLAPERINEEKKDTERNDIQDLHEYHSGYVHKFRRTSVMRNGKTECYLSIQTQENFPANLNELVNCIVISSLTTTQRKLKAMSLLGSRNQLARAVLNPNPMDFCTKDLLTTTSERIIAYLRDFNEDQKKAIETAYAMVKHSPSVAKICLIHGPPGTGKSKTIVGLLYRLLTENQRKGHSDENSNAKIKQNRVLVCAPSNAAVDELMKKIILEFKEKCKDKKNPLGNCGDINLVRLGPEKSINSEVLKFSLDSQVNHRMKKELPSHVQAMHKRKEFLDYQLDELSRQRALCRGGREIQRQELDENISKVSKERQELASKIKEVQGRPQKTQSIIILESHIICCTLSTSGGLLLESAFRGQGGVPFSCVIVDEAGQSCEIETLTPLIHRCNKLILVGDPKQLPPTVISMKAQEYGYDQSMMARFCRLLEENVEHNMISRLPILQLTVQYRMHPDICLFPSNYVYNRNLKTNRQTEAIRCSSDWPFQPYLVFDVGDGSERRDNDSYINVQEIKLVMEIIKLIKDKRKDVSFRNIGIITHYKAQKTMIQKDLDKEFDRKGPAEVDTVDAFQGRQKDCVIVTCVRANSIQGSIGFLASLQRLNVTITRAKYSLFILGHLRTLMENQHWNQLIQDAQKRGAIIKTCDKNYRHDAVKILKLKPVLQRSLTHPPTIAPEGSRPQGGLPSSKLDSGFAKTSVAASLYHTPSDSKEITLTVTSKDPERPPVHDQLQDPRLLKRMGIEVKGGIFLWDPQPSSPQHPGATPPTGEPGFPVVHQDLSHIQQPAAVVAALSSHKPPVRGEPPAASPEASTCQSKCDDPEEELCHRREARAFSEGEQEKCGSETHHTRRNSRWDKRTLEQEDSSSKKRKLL
Nature of the series: BLI.

Series [4] has as its target T2, Sen1-HD. Nature of the series: BLI. The source holds these as a separate data set.
Series [5] deals with T1, SETX-HD-WT. The series is described as follows: BLI. The source holds these as a separate data set.
The target in series [6] is T1, SETX-HD-WT. The series is described as follows: EMSA.
In series [7] the target is T1, SETX-HD-WT. Nature of the series: EMSA. This is another data set of the same source.
Series [8] has as its target T1, SETX-HD-WT. Nature of the series: EMSA. The source holds these as a separate data set.
Series [9] addresses T1, SETX-HD-WT. The series is described as follows: EMSA. The source holds these as a separate data set.

As to TTGTCTTCTCATAAATTTAATCCCCGTACGCTTATACTCCT (ssDNA) [ssDNA pRMS739 (41 nt)], the dissociation constant Kd is 2.8 nM in series [1] and 3.4 nM in [2].

As to UUGUCUUCUCAUAAAUUUAAUCCCCGUACGCUUAUACUCCU (ssRNA) [ssRNA pRMS740 (41 nt)], the binding result in series [3] is recorded as “binds”. Further, the Kd in series [4] was 3.7 nM; in series [5], 4.6 nM.

B1: 5'-oh R-loop (pRMS217/219/222) (mixed)
DNA 1: GACGCTGCCGAATTCTACCAGTGCCTTGCTAGGACATCTTTGCCCACCTGCAGGTTCACCC
DNA 2: GGGTGAACCTGCAGGTGGGCGGCTGCTCATCGTAGGTTAGTTGGTAGAATTCGGCAGCGTC
RNA: UAAGAGCAAGAUGUUCUAUAAAAGAUGUCCUAGCAAGGCAC
Turning to B1, the binding result in series [6] was “binds”.

B2: R-loop, no overhang (pRMS217/219/223) (mixed)
DNA 1: GACGCTGCCGAATTCTACCAGTGCCTTGCTAGGACATCTTTGCCCACCTGCAGGTTCACCC
DNA 2: GGGTGAACCTGCAGGTGGGCGGCTGCTCATCGTAGGTTAGTTGGTAGAATTCGGCAGCGTC
RNA: AAAGAUGUCCUAGCAAGGCAC
B2: the binding result in series [6] is given as “binds”.

B3: 3'-oh R-loop (pRMS217/219/626) (mixed)
DNA 1: GACGCTGCCGAATTCTACCAGTGCCTTGCTAGGACATCTTTGCCCACCTGCAGGTTCACCC
DNA 2: GGGTGAACCTGCAGGTGGGCGGCTGCTCATCGTAGGTTAGTTGGTAGAATTCGGCAGCGTC
RNA: AAAGAUGUCCUAGCAAGGCACUAAGUCCUAGAUGUUCUAUA
With B3, the binding result in series [6] is given as “binds”.

B4: 5'-oh RNA:DNA hybrid (pRMS678/pRMS690) (DNA:RNA)
RNA: UUGUCUUCUCAUAAAUUUAAUCCCCGUACGCUUAUACUCCUUUAACUACCCAGUCUUCCCG
DNA: CGGGAAGACTGGGTAGTTAA
Regarding B4, in [7], the binding result is listed as “binds”.

B5: 3'-oh RNA:DNA hybrid (pRMS678/pRMS689) (DNA:RNA)
RNA: UUGUCUUCUCAUAAAUUUAAUCCCCGUACGCUUAUACUCCUUUAACUACCCAGUCUUCCCG
DNA: TTAAATTTATGAGAAGACAA
In the case of B5, in series [8], the binding result is reported as “binds”.

B6: blunt RNA:DNA hybrid (pRMS678/pRMS743) (DNA:RNA)
RNA: UUGUCUUCUCAUAAAUUUAAUCCCCGUACGCUUAUACUCCUUUAACUACCCAGUCUUCCCG
DNA: CGGGAAGACTGGGTAGTTAAAGGAGTATAAGCGTACGGGGATTAAATTTATGAGAAGACAA
Take B6: the binding result in [9] was “no binding”.
